# T1: BglC (Thermobifida fusca, UniProt Q9LAV5)
# T1 sequence (Q9LAV5 1-484): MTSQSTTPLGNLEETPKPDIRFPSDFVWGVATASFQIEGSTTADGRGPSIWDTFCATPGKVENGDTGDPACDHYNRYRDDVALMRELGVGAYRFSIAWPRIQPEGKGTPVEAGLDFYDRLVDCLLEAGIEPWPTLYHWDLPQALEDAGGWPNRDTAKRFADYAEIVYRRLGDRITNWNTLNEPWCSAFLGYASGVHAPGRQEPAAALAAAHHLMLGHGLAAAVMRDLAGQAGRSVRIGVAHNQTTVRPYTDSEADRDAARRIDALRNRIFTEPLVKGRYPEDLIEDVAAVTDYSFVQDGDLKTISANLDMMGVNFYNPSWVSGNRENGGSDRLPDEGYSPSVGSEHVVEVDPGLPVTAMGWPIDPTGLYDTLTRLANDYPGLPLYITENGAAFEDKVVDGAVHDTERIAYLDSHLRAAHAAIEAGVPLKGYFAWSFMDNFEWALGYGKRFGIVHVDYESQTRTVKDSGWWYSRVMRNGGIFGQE
# Columns and labels:
# [1] = biological target: T1, BglC; test: 4-nitrophenol release at […] nm, continuous plate assay, non-linear regression; format: biochemical
# [2] = substrate: O=[N+]([O-])c1ccc(O[C@@H]2O[C@H](CO)[C@@H](O)[C@H](O)[C@H]2O)cc1; test: purified protein; details: 100 mM sodium phosphate pH 7.0, 37 °C, 2.63 nM enzyme
Molecule,Ki [1] [µM],Km [2] [µM],kcat [2] [s⁻¹]
O=C1O[C@H](CO)[C@@H](O)[C@H](O)[C@H]1O [D-glucono-δ-lactone],6.63 ± 1.3,–,–
BglC (Thermobifida fusca) (protein) MTSQSTTPLGNLEETPKPDIRFPSDFVWGVATASFQIEGSTTADGRGPSIWDTFCATPGKVENGDTGDPACDHYNRYRDDVALMRELGVGAYRFSIAWPRIQPEGKGTPVEAGLDFYDRLVDCLLEAGIEPWPTLYHWDLPQALEDAGGWPNRDTAKRFADYAEIVYRRLGDRITNWNTLNEPWCSAFLGYASGVHAPGRQEPAAALAAAHHLMLGHGLAAAVMRDLAGQAGRSVRIGVAHNQTTVRPYTDSEADRDAARRIDALRNRIFTEPLVKGRYPEDLIEDVAAVTDYSFVQDGDLKTISANLDMMGVNFYNPSWVSGNRENGGSDRLPDEGYSPSVGSEHVVEVDPGLPVTAMGWPIDPTGLYDTLTRLANDYPGLPLYITENGAAFEDKVVDGAVHDTERIAYLDSHLRAAHAAIEAGVPLKGYFAWSFMDNFEWALGYGKRFGIVHVDYESQTRTVKDSGWWYSRVMRNGGIFGQE,–,560 ± 10,48.68
